Assay results reported in patent publication US6949522B2, “β-2′- or 3′-halonucleosides” (Pharmasset, Inc., priority 2001, dated 2005).

Substrate: Nc1ncnc2c1ncn2[C@@H]1O[C@H](CO)[C@@H](O)[C@H]1O
Test: purified protein, by the assay type
Details: other: 25° C., phosphate buffer pH 7.4, substrate of ADA
Experimental: Assays were performed at 25° C. in phosphate buffer solution (pH 7.4) with substrate concentrations in the range of 15-100 μM and with 0.15 unit of adenosine deaminase (EC.3.5.4.4. from calf intestinal mucosa). The assays were monitored with a UV spectrometer at 265 nm. […] The concentration (ct) of each substrate at a certain time (t) was calculated from the absorbance (At) at that time (t), where it was assumed that the total change of absorbance (A0−A∞) was directly related to the disappearance of the substrate.^35 Initial hydrolysis rates for each substrate concentration were measured manually through graphical curve fitting of the concentration versus time data for reaction of each substrate. From Lineweaver-Burke plot of these initial rates, Vmax (maximum velocity) and KM (Michaelis constant) were obtained for each substrate and kcat was also calculated with 0.15 unit of the enzyme (M.W. 33,000) in 2 mL of buffer solution.

B1: adenosine deaminase (EC.3.5.4.4. from calf intestinal mucosa) (Bos taurus) (protein)
chain: MAQTPAFNKPKVELHVHLDGAIKPETILYYGRKRGIALPADTPEELQNIIGMDKPLSLPEFLAKFDYYMPAIAGCREAVKRIAYEFVEMKAKDGVVYVEVRYSPHLLANSKVEPIPWNQAEGDLTPDEVVSLVNQGLQEGERDFGVKVRSILCCMRHQPSWSSEVVELCKKYREQTVVAIDLAGDETIEGSSLFPGHVKAYAEAVKSGVHRTVHAGEVGSANVVKEAVDTLKTERLGHGYHTLEDATLYNRLRQENMHFEVCPWSSYLTGAWKPDTEHPVVRFKNDQVNYSLNTDDPLIFKSTLDTDYQMTKNEMGFTEEEFKRLNINAAKSSFLPEDEKKELLDLLYKAYGMPSPASAEQCL
  Km: 24.5 µM
  kcat: 76.4 s⁻¹
  kcat/Km: 3.1e+06 M⁻¹ s⁻¹
